Experimental data as given in patent US20230149515A1, “INHIBITION OF SARS-COV-2 VIRAL ENTRY THROUGH ORAL ADMINISTRATION OF L[…] USES THEREOF” (priority 2020, published 2023).

Tested on: SARS-CoV-2
Assay type: cell-based

B1: lactoferrin (protein, UniProt P02788 20-710, looked up)
Lactotransferrin: GRRRSVQWCAVSQPEATKCFQWQRNMRKVRGPPVSCIKRDSPIQCIQAIAENRADAVTLDGGFIYEAGLAPYKLRPVAAEVYGTERQPRTHYYAVAVVKKGGSFQLNELQGLKSCHTGLRRTAGWNVPIGTLRPFLNWTGPPEPIEAAVARFFSASCVPGADKGQFPNLCRLCAGTGENKCAFSSQEPYFSYSGAFKCLRDGAGDVAFIRESTVFEDLSDEAERDEYELLCPDNTRKPVDKFKDCHLARVPSHAVVARSVNGKEDAIWNLLRQAQEKFGKDKSPKFQLFGSPSGQKDLLFKDSAIGFSRVPPRIDSGLYLGSGYFTAIQNLRKSEEEVAARRARVVWCAVGEQELRKCNQWSGLSEGSVTCSSASTTEDCIALVLKGEADAMSLDGGYVYTAGKCGLVPVLAENYKSQQSSDPDPNCVDRPVEGYLAVAVVRRSDTSLTWNSVKGKKSCHTAVDRTAGWNIPMGLLFNQTGSCKFDEYFSQSCAPGSDPRSNLCALCIGDEQGENKCVPNSNERYYGYTGAFRCLAENAGDVAFVKDVTVLQNTDGNNNEAWAKDLKLADFALLCLDGKRKPVTEARSCHLAMAPNHAVVSRMDKVERLKQVLLHQQAKFGRNGSDCPDKFCLFQSETKNLLFNDNTECLARLHGKTTYEKYLGPQYVAGITNLKKCSTSPLLEACEFLRK
- efficacy in preventing SARS-CoV-2 infection (Huh-7 cells, FIG. 2): ~100%
- inhibition of SARS-CoV-2 infection (efficacy) (all concentrations of lactoferrin tested, FIG. 3B): 100%
- reduction in SARS-Cov-2 synctitia (dose response study, all concentrations tested ranging from 200 ug/mL to 12.5 ug/mL, compared to viral control, FIG. 3A): > 95%
